Target: chicken F-actin (chicken) (UniProt P68139)
Assay: co-sedimentation

Row | Substance | Kd
1 | Drosophila indirect flight muscle myosin isoform (IFI) subfragment-1 (S1), S532P mutant (domain or fragment) | 2000 nM
2 | Drosophila indirect flight muscle myosin isoform (IFI) subfragment-1 (S1), wild-type control (domain or fragment) | 1260 nM
